This is an account of results in paper PMC5954021.

The data set can be described thus: western blot, TGF-β-treated MCF-10A. The conditions noted are these: glycan lost, control: control sgRNA cells. (A western blot detects proteins with antibodies after separation by electrophoresis.)

PD-L1: STT3A knockdown: the expression_or_secretion result is recorded as “no change”.

PD-L1: STT3B knockdown: the expression_or_secretion entry was “no change”.

Consider PD-L1: STT3A/3B knockdown, for which the expression_or_secretion result is on record as “decreases”.
